Results as given in US20180071403A1 (Daiichi Sankyo, published 2018).

T1: human B7-H3 variant 1 (human, UniProt Q5ZPR3 27-534)
T1 sequence: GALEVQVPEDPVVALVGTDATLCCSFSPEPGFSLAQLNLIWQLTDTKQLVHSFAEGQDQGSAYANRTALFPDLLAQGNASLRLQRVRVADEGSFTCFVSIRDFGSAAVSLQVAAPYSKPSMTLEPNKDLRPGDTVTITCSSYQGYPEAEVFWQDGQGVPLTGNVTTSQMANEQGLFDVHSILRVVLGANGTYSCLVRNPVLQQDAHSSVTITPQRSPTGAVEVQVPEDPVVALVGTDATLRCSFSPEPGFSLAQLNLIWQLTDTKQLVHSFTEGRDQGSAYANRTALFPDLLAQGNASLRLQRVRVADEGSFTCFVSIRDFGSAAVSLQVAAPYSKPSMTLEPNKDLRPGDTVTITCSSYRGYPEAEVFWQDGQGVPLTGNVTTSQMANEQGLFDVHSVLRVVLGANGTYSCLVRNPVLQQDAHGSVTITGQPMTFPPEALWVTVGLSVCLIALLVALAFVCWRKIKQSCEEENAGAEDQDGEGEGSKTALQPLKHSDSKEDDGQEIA

T2: CD30 (UniProt P28908 19-595, limits assumed)
T2 sequence (looked up): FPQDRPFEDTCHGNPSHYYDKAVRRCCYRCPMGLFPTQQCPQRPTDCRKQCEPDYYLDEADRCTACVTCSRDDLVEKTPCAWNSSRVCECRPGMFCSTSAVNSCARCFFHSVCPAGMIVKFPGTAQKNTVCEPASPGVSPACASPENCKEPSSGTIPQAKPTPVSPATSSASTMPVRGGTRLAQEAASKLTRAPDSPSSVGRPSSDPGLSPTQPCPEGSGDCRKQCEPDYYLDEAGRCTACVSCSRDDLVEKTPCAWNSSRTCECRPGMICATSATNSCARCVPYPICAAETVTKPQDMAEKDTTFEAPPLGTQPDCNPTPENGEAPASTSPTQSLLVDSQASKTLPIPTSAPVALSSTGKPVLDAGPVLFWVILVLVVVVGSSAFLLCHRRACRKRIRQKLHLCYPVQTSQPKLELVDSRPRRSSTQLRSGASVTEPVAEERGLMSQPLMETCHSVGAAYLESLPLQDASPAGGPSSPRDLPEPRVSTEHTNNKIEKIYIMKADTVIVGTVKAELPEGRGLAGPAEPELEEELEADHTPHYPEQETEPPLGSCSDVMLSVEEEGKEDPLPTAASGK


Tests used:
human B7-H3 variant 1 [1] = target: T1, human B7-H3 variant 1; assay: cell-based or functional assay
CD30 = target: T2, CD30; assay: cell-based or functional assay
CD33 = CD33 (UniProt P20138 18-364, limits assumed); assay: cell-based or functional assay
human B7-H3 variant 1 [2] = target: T1, human B7-H3 variant 1; assay: flow cytometry, M30 at 10 µg/mL on CCRF-CEM clones transfected with B7-H3 variant 1, fluorescein-labelled anti-mouse IgG
Method: Flow cytometry was used for confirming B7-H3 expression in each recovered clone. Specifically, each recovered clone was washed twice with PBS containing 5% FBS, thereafter suspended by the addition of PBS containing 5% FBS and 10 μg/mL M30, and left standing at 4° C. for 30 minutes. […] The clone was washed twice with PBS containing 5% FBS, thereafter resuspended in PBS containing 5% FBS, and detected by using a flow cytometer (FC500: Beckman Coulter, Inc.).

Sequence of CD33 (P20138 18-364 limits assumed): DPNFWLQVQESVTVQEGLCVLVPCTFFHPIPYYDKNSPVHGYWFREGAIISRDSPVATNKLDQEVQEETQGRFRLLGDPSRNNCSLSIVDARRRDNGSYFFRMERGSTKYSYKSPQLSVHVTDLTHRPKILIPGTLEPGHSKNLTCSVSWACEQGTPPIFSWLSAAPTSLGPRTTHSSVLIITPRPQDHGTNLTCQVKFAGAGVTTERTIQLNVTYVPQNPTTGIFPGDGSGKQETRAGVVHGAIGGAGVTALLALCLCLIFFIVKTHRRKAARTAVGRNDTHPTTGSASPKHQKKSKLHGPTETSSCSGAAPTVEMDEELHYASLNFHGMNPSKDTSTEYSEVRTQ

| Binder | IC50, anticellular effect (cell growth inhibition, CellTiter-Glo) on SR cells (CD30) [nM] | other results |
| --- | --- | --- |
| Antibody-drug conjugate (6) (antibody, human IgG1, kappa, V domains shown, drug-linker -(Succinimid-3-yl-N)-CH2CH2CH2CH2CH2-C(=O)-DGGFG-NH-CH2CH2CH2-C(=O)-(NH-DX) (exatecan) bound by thioether at reduced hinge disulfide cysteines (positions not given); average 6.2 drug molecules per antibody) VH: QVQLVQSGAEVKKPGSSVKVSCKASGYTFTNYVMHWVRQAPGQGLEWMGYINPYNDDVKYNEKFKGRVTITADESTSTAYMELSSLRSEDTAVYYCARWGYYGSPLYYFDYWGQGTLVTVSS VL: EIVLTQSPATLSLSPGERATLSCRASSRLIYMHWYQQKPGQAPRPLIYATSNLASGIPARFSGSGSGTDFTLTISSLEPEDFAVYYCQQWNSNPPTFGQGTKVEIKR | – | IC50, anticellular effect (cell growth inhibition, CellTiter-Glo) on CEM_V1_3.1_2 cells (human B7-H3 variant 1 [1]): < 0.1 nM |
| Antibody-drug conjugate (23) (antibody, human IgG1, kappa, V domains shown, drug-linker -(Succinimid-3-yl-N)-CH2CH2CH2CH2CH2-C(=O)-DGGFG-(NH-DX) (exatecan) bound by thioether at reduced hinge disulfide cysteines (positions not given); average 6.6 drug molecules per antibody) VH: QVQLVQSGAEVKKPGSSVKVSCKASGYTFTNYVMHWVRQAPGQGLEWMGYINPYNDDVKYNEKFKGRVTITADESTSTAYMELSSLRSEDTAVYYCARWGYYGSPLYYFDYWGQGTLVTVSS VL: EIVLTQSPATLSLSPGERATLSCRASSRLIYMHWYQQKPGQAPRPLIYATSNLASGIPARFSGSGSGTDFTLTISSLEPEDFAVYYCQQWNSNPPTFGQGTKVEIKR | – | IC50, anticellular effect (cell growth inhibition, CellTiter-Glo) on CEM_V1_3.1_2 cells (human B7-H3 variant 1 [1]): < 0.1 nM |
| Antibody-drug conjugate (7) (antibody, V domains shown, drug-linker -(Succinimid-3-yl-N)-CH2CH2CH2CH2CH2-C(=O)-DGGFG-NH-CH2CH2CH2-C(=O)-(NH-DX) (exatecan) bound by thioether at reduced hinge disulfide cysteines (positions not given); average 4.6 drug molecules per antibody) VH: QIQLQQSGPEVVKPGASVKISCKASGYTFTDYYITWVKQKPGQGLEWIGWIYPGSGNTKYNEKFKGKATLTVDTSSSTAFMQLSSLTSEDTAVYFCANYGNYWFAYWGQGTQVTVSA VL: DIVLTQSPASLAVSLGQRATISCKASQSVDFDGDSYMNWYQQKPGQPPKVLIYAASNLESGIPARFSGSGSGTDFTLNIHPVEEEDAATYYCQQSNQDPWTFGGGTKLEIKR | < 0.01 | – |
| Antibody-drug conjugate (8) (antibody, V domains shown, drug-linker -(Succinimid-3-yl-N)-CH2CH2CH2CH2CH2-C(=O)-DGGFG-NH-CH2CH2CH2-C(=O)-(NH-DX) (exatecan) bound by thioether at reduced hinge disulfide cysteines (positions not given); average 7.9 drug molecules per antibody) VH: QIQLQQSGPEVVKPGASVKISCKASGYTFTDYYITWVKQKPGQGLEWIGWIYPGSGNTKYNEKFKGKATLTVDTSSSTAFMQLSSLTSEDTAVYFCANYGNYWFAYWGQGTQVTVSA VL: DIVLTQSPASLAVSLGQRATISCKASQSVDFDGDSYMNWYQQKPGQPPKVLIYAASNLESGIPARFSGSGSGTDFTLNIHPVEEEDAATYYCQQSNQDPWTFGGGTKLEIKR | < 0.01 | – |
| Antibody-drug conjugate (24) (antibody, V domains shown, drug-linker -(Succinimid-3-yl-N)-CH2CH2CH2CH2CH2-C(=O)-DGGFG-(NH-DX) (exatecan) bound by thioether at reduced hinge disulfide cysteines (positions not given); average 2.9 drug molecules per antibody) VH: QIQLQQSGPEVVKPGASVKISCKASGYTFTDYYITWVKQKPGQGLEWIGWIYPGSGNTKYNEKFKGKATLTVDTSSSTAFMQLSSLTSEDTAVYFCANYGNYWFAYWGQGTQVTVSA VL: DIVLTQSPASLAVSLGQRATISCKASQSVDFDGDSYMNWYQQKPGQPPKVLIYAASNLESGIPARFSGSGSGTDFTLNIHPVEEEDAATYYCQQSNQDPWTFGGGTKLEIKR | < 0.01 | – |
| Antibody-drug conjugate (25) (antibody, V domains shown, drug-linker -(Succinimid-3-yl-N)-CH2CH2CH2CH2CH2-C(=O)-DGGFG-(NH-DX) (exatecan) bound by thioether at reduced hinge disulfide cysteines (positions not given); average 4.8 drug molecules per antibody) VH: QIQLQQSGPEVVKPGASVKISCKASGYTFTDYYITWVKQKPGQGLEWIGWIYPGSGNTKYNEKFKGKATLTVDTSSSTAFMQLSSLTSEDTAVYFCANYGNYWFAYWGQGTQVTVSA VL: DIVLTQSPASLAVSLGQRATISCKASQSVDFDGDSYMNWYQQKPGQPPKVLIYAASNLESGIPARFSGSGSGTDFTLNIHPVEEEDAATYYCQQSNQDPWTFGGGTKLEIKR | < 0.01 | – |
| Antibody-drug conjugate (10) (antibody, V domains shown, drug-linker -(Succinimid-3-yl-N)-CH2CH2CH2CH2CH2-C(=O)-DGGFG-NH-CH2CH2CH2-C(=O)-(NH-DX) (exatecan) bound by thioether at reduced hinge disulfide cysteines (positions not given); average 6.6 drug molecules per antibody) VH: EVQLVQSGAEVKKPGSSVKVSCKASGYTITDSNIHWVRQAPGQSLEWIGYIYPYNGGTDYNQKFKNRATLTVDNPTNTAYMELSSLRSEDTAFYYCVNGNPWLAYWGQGTLVTVSS VL: DIQLTQSPSTLSASVGDRVTITCRASQSLDNYGIRFLTWFQQKPGKAPKLLMYAASNQGSGVPSRFSGSGSGTEFTLTISSLQPDDFATYYCQQTKEVPWSFGQGTKVEVKR | – | IC50, cytotoxic effect (cell growth inhibition, CellTiter-Glo) on HL-60 cells (CD33): < 1 nM |
| M30 antibody (antibody, mouse IgG2a, kappa, V domains shown, Mouse monoclonal anti-B7-H3 antibody from hybridoma M30) VH: EVQLQQSGPELVKPGASVKMSCKASGYTFTNYVMHWVKQKPGQGLEWIGYINPYNDDVKYNEKFKGKATQTSDKSSSTAYMELSSLTSEDSAVYYCARWGYYGSPLYYFDYWGQGTTLTVSS VL: QIVLSQSPTILSASPGEKVTMTCRASSRLIYMHWYQQKPGSSPKPWIYATSNLASGVPARFSGSGSGTSYSLTISRVEAEDAATYYCQQWNSNPPTFGTGTKLELKR | – | binding result (human B7-H3 variant 1 [2]): binds |
